Results reported in patent US20240294914A1, “COMPOSITIONS AND METHODS FOR TREATING HEPATITIS B VIRUS INFECTION” (priority 2021, published 2024).
Strand notation (5' to 3'): a small letter for the sugar, then the base; units joined by * are phosphorothioate-linked, units joined directly phosphodiester-linked; [ ] holds rarer units or linkages, { } end groups; capitals alone tell only the bases. m = 2'-O-methyl; r = 2'-OH (RNA)

Tests used:
Hepatitis B virus [1] = experiment: HBV minicircle (HBVcircle) mouse model: serum HBsAg, HBeAg, HBV DNA after LNP injection; type: in vivo
From the text: Having established the efficacy of these base editing reagents in vitro, experiments were then undertaken to evaluate these same base editing reagents for antiviral efficacy in vivo using the HBV minicircle mouse model. […] After establishing HBV viral replication, hepatic delivery of the base editing reagents was achieved via systemic administration of lipid nanoparticles (LNPs) formulated with the following base editing reagents: CBE mRNA and HBV-targeting gRNAs (e.g., gRNA37 and gRNA40 (see Table 1)). The mice were administered a combination of base editors, where the combination was either gRNA37 and gRNA40 or gRNA37-HM and gRNA40-HM. The guides gRNA37-HM and gRNA40-HM each included heavily modified(HM) scafolds (see Table 1).
Table 23 below provides a summary of the experimental design used to evaluate the base editing reagents in vivo. The mice contained an HBVcircle polynucleotide that enabled HBV replication in vivo. See, for example Yan et al., J. Hepatol 2017 66:1149-1157 for a description of an exemplary mouse model. The mice were administered lipid nanoparticles (BL4 LNP) containing mRNA encoding BE4 (a cytidine base editor) and either the guide RNAs gRNA37 and gRNA40 or the guide RNAs gRNA37-HM and gRNA-40-HM containing a scaffold with heavy modifications (HM). […] HBsAg, HbeAg, and HBV DNA levels in serum were measured weekly (FIGS. 24A-24C and 25A-25C). […]

HBV-infected cells = experiment: Base editors with reduced off-target activity (BE4, ppApo, rrA3F): editing and HBsAg in HBV-infected cells; type: cell-based, Hepatitis B virus; conditions: base editor in combination with gRNA37 and gRNA40
From the text: FIG. 22 provides a bar graph showing base editing at the sites targeted by gRNA37 and gRNA40. Cells were contacted with BE4, ppApo, or rrA3F in combination with gRNA37 and gRNA40.
Thus, all three base editor systems had antiviral activity. The negative control (HBV) was untreated cells and the control (contr) was gRNA targeting the PCSK9 gene.
It may be advantageous to use base editors that have reduced off-target activity and lower non-specific effects (e.g., as compared to BE4) without compromising editing efficiencies. Thus, experiments were undertaken to evaluate the antiviral efficacy of base editor systems containing ppApo or rrA3F, which are described in Yu, et al. “Cytoxine base editors with minimized unguided DNA and RNA off-target events and high on-target activity,” Nature Communications, 11:2052 (2020), DOI: 10.1038/s41467-020-15887-5, the disclosure of which is incorporated herein by reference in its entirety for all purposes.

Hepatitis B virus [2] = experiment: Antiviral efficacy in HBV-infected primary human hepatocytes (HBV-PHH): HBsAg, HBeAg, HBV DNA, 3.5 kb RNA, rebound; type: cell-based; conditions: HBV-PHH system, guide RNA + mRNA encoding base editor
From the text: (§1) Base editor systems comparing guide RNAs evaluated in Example 1 were subsequently tested for anti-viral and editing efficacy using the Hepatitis B virus-primary human hepatocyte (HBV-PHH) system. Cells were transfected with the guide RNAs and mRNAs encoding the base editor as described in Example 1. […] Guide RNAs ABE-133, MSPbeam94, and ABE-85 were associated with a 70-80% reduction of HBV DNA as compared to controls. The guide RNAs PolyA-NGC1 and PolyA-NGC2 were associated with high editing followed by 90% efficacy in reduction of HbeAg.
The HBV-PHH system for studying the Hepatitis B virus is described, for example, by Winer, et al., “Long-term hepatitis B infection in a scalable hepatic co-culture system,” Nat. Commun. 8:125 (2017) and by Zhou, et al. “Long-term maintenance of human fetal hepatocytes and prolonged susceptibility to HBV infection by co-culture with non-parenchymal cells,” J. Virol Methods, 195:185-93 (2014); and is provided commercially by ImQuest BioSciences (imquestbio.com/programs/virology/hbv/)).
(§2) The design of the experiments is described schematically in FIG. 14. Primary human hepatocyte (PHH) cells were infected with HBV at day 0. At days 4 and 11, the cells were transfected with mRNA encoding BE4 and with gRNA37 and gRNA40. Measurements of HBV DNA were taken over time, and measurements of HBsAg, HBeAG, HBV total DNA, 3.5 kb RNA, and cccDNA editing were taken at day 25. The experiments were carried out using a PHH co-culture system available from PhoenixBio. The PHH co-culture system maintained hepatocyte differentiation and metabolic activity for over 30 days. The HBV infection in the cells was persistent and a cccDNA level was maintained.
(§3) The design of the experiments is described schematically in FIG. 18. Primary human hepatocyte (PHH) cells were infected with HBV at day 0, at day 4 an 8-day. Treatment with lamivudine commenced (which included a 3-day pretreatment period within the 8-day total), and cells were transfected with mRNA encoding BE4 and the gRNAs gRNA37 and gRNA40 at days 7 and 14. HBV DNA levels were measured over time, and additional HBV markers were measured at day 21.
(§4) Primary hepatocytes (PHH) co-cultures infected with HBV were used to test antiviral efficacy of base editing systems. Primary hepatocyte co-culture (PHH) infected with HBV virus is a clinically relevant system for assessing anti-viral activity of base editing systems. The base editing reagents (mRNA encoding a base editor(s) and synthetic gRNA) were transfected via lipofection twice over the course of two weeks. The first transfection was performed about 3, 4, or 7 days after infection (days post infection (dpi)). Not being bound by theory, this 3-to-7-day period ensured that the cccDNA was completely formed at the time of the transfection. The second transfection was at about 7, 10, 11, or 14 days after infection. Extracellular parameters (e.g., HBsAg, HBeAg, and HBV DNA) were monitored over the course of the experiment (including the end of the experiment) and intracellular parameters (HBV DNA, viral RNA, and editing) were measured at the end of the experiment. Cells were lysed at the termination of the experiment (e.g., at 15, 17, 21, or 25 days).
(§5) Transfection details: RNA format, 800 ng total RNA per well in a 24 well plate (600 ng base editor-encoding mRNA+200 ng gRNA) transfected via lipofection (lipofectamin messengerMax, thermofisher Scientific) according to the vendor protocol.

HBV cccDNA = experiment: Base editing of HBV cccDNA in primary human hepatocytes (HBV-PHH); type: cell-based, Hepatitis B virus; conditions: HBV-PHH system
From the text: as §1
Having identified gRNA37 and gRNA40 as effective gRNAs, the antiviral efficacy of a base editor system containing BE4, gRNA37 and gRNA40 (i.e., multiplexing gRNAs) was evaluated, FIGS. 8-10. It was determined that the base editor system multiplexed with the two gRNAs was associated with a reduction of HBV viral parameters in HepG2-NTCP cells, see FIG. 9. […] For the evaluation of editing of cccDNA, the cccDNA was enriched via Hirt extraction and ExoI/ExoIII nuclease treatment to remove rcDNA (relaxed circular DNA). Throughout the Examples provided herein, editing of cccDNA was evaluated using next generation sequencing completed using cccDNA enriched in this way.
as §2, §3, §4, §5

[3] = tested on: HBV genome in HEK293T cells transduced with a lentiviral vector; experiment: Base editing efficiency in Hek293-lentiHBV system (PCR amplicons sequenced on MiSeq); type: cell-based, Hepatitis B virus; design: Editing Efficiency 2 (%): concentration or dose not given beside the values; conditions: for Average Editing Efficiency (%): average of 3, base editor Cas12b-ABE; for Average Editing Efficiency (%) / Editing Efficiency 1 (%) / Editing Efficiency 2 (%) / Editing Efficiency 3 (%): plasmid transfection, four days; for Editing Efficiency 1 (%): replicate 1, base editor Cas12b-ABE; for Editing Efficiency 2 (%): replicate 2, base editor Cas12b-ABE; for Editing Efficiency 3 (%): replicate 3, base editor Cas12b-ABE

C=C1[C@H](CO)[C@@H](O)C[C@@H]1n1cnc2c(=O)[nH]c(N)nc21 [Entecavir]
HBV rebound (serum HBV DNA) (Hepatitis B virus [1]; Entecavir 0.03 mg/kg orally for two weeks then discontinued, LNP 2 mg/kg): rebounds | reduction in serum levels of HBV DNA at day 21 (Hepatitis B virus [1]; Entecavir orally daily days 1-14, base editing reagents day 1 or days 1 and 14): approximately 2 log

BE4: cytidine base editor polypeptide, SEQ ID NO: 10832, delivered as mRNA
HBsAg levels (HBV-infected cells): reductions | editing efficiencies at the sites targeted by gRNA37 and gRNA40 (HBV-infected cells): comparable editing efficiencies

B1: PolyA-NGC1: guide RNA SEQ ID NO: 5499 (nucleic acid)
guide: GACCCTTATAAAGAATTTGGGTTTTAGAGCTAGAAATAGCAAGTTAAAATAAGGCTAGTCCGTTATCAACTTGAAAAAGTGGCACCGAGTCGGTGCTTTT
modifications: chemistry not fully specified
HBV markers relative to the no treatment control (cccDNA editing and/or viral replication) (Hepatitis B virus [2]): robust reduction in all HBV markers | efficacy in reduction of HbeAg (Hepatitis B virus [2]): 90% | cccDNA Editing in PHH A > G % (HBV cccDNA): 60.4% | editing (HBV cccDNA): high editing

B2: PolyA-NGC2: guide RNA SEQ ID NO: 5500 (nucleic acid)
guide: TTTATAAGGGTCGATGTCCAGTTTTAGAGCTAGAAATAGCAAGTTAAAATAAGGCTAGTCCGTTATCAACTTGAAAAAGTGGCACCGAGTCGGTGCTTTT
modifications: chemistry not fully specified
HBV markers relative to the no treatment control (cccDNA editing and/or viral replication) (Hepatitis B virus [2]): robust reduction in all HBV markers | efficacy in reduction of HbeAg (Hepatitis B virus [2]): 90% | cccDNA Editing in PHH A > G % (HBV cccDNA): 62.9% | editing (HBV cccDNA): high editing

B3: ABE-133: guide RNA SEQ ID NO: 5516 (nucleic acid)
guide: GAAGATGAGGCATAGCAGCAGTTTTAGAGCTAGAAATAGCAAGTTAAAATAAGGCTAGTCCGTTATCAACTTGAAAAAGTGGCACCGAGTCGGTGCTTTT
modifications: chemistry not fully specified
% Editing average ([3]; base editor VRQR-ABE): 65% | HBV markers relative to the no treatment control (cccDNA editing and/or viral replication) (Hepatitis B virus [2]): robust reduction in all HBV markers | cccDNA Editing in PHH A > G % (HBV cccDNA): 76.0%

B4: cas12b-152: guide RNA SEQ ID NO: 5523 (nucleic acid)
guide: GUUCUGUCUUUUGGUCAGGACAACCGUCUAGCUAUAAGUGCUGCAGGGUGUGAGAAACUCCUAUUGCUGGACGAUGUCUCUUACGAGGCAUUAGCACAGAGAAGUCCACCACGAGUC
modifications: listed as RNA, chemistry not fully specified
% Editing average ([3]; base editor Cas12b-ABE): 54% | HBV markers relative to the no treatment control (cccDNA editing and/or viral replication) (Hepatitis B virus [2]): robust reduction in all HBV markers

B5: cas12b-5: guide RNA SEQ ID NO: 380 (nucleic acid)
guide: mG*mU*mU*rCrUrGrUrCrUrUrUrUrGrGrUrCrArGrGrArCrArArCrCrGrUrCrUrArGrCrUrArUrArArGrUrGrCrUrGrCrArGrGrGrUrGrUrGrArGrArArArCrUrCrCrUrArUrUrGrCrUrGrGrArCrGrArUrGrUrCrUrCrUrUrArCrGrArGrGrCrArUrUrArGrCrArCrUrCrGrCrUrGrGrArUrGrUrGrUrCrUrGrCrGrGrC
Average Editing Efficiency (%) [3]: 0.54% | Editing Efficiency 1 (%) [3]: 0.12% | Editing Efficiency 2 (%) [3]: 0.36% | Editing Efficiency 3 (%) [3]: 1.14%

B6: ABE-41: guide RNA SEQ ID NO: 5513 (nucleic acid)
guide: AGAAGATGAGGCATAGCAGCGTTTTAGAGCTAGAAATAGCAAGTTAAAATAAGGCTAGTCCGTTATCAACTTGAAAAAGTGGCACCGAGTCGGTGCTTTT
modifications: chemistry not fully specified
% Editing average ([3]; base editor Abe7.10): 58% | HBV markers relative to the no treatment control (cccDNA editing and/or viral replication) (Hepatitis B virus [2]): robust reduction in all HBV markers | cccDNA Editing in PHH A > G % (HBV cccDNA): 56.0%

B7: cas12b-11: guide RNA SEQ ID NO: 381 (nucleic acid)
guide: mG*mU*mU*rCrUrGrUrCrUrUrUrUrGrGrUrCrArGrGrArCrArArCrCrGrUrCrUrArGrCrUrArUrArArGrUrGrCrUrGrCrArGrGrGrUrGrUrGrArGrArArArCrUrCrCrUrArUrUrGrCrUrGrGrArCrGrArUrGrUrCrUrCrUrUrArCrGrArGrGrCrArUrUrArGrCrArCrCrArCrCrUrGrUrArUrUrCrCrCrArUrCrCrCrArU
Average Editing Efficiency (%) [3]: 58.03% | Editing Efficiency 1 (%) [3]: 44.34% | Editing Efficiency 2 (%) [3]: 60.28% | Editing Efficiency 3 (%) [3]: 69.47% | HBV markers relative to the no treatment control (cccDNA editing and/or viral replication) (Hepatitis B virus [2]): robust reduction in all HBV markers
